Several values for one entry are separate records, joined by “and”; a condition that tells them apart may be missing. Equal values may be shown once. Read-outs that look alike come from different tables or passages of the source.
How the values were obtained:
[1] = molecular target: synaptotagmin LD (Rattus norvegicus) (UniProt P29101); test: ITC; settings: cited from earlier work
[2] = molecular target: GST-hSV2C 455-579 (human synaptic vesicle glycoprotein 2C, luminal domain 4, GST fusion) (UniProt Q496J9); settings: 25 °C, PBS (composition not given) at pH 7.3, 150 mM NaCl at pH 5.0
[3] = molecular target: GST-hSV2C 455-579 (human synaptic vesicle glycoprotein 2C, luminal domain 4, GST fusion) (UniProt Q496J9); test: SPR (Biacore X100), kinetic evaluation; settings: pH 7.3; 25 °C; PBS (composition not given) at pH 7.3; PBS (pH 7.3)

UniProt Q496J9, sequence (Q496J9 whole entry, the tested form may be a part): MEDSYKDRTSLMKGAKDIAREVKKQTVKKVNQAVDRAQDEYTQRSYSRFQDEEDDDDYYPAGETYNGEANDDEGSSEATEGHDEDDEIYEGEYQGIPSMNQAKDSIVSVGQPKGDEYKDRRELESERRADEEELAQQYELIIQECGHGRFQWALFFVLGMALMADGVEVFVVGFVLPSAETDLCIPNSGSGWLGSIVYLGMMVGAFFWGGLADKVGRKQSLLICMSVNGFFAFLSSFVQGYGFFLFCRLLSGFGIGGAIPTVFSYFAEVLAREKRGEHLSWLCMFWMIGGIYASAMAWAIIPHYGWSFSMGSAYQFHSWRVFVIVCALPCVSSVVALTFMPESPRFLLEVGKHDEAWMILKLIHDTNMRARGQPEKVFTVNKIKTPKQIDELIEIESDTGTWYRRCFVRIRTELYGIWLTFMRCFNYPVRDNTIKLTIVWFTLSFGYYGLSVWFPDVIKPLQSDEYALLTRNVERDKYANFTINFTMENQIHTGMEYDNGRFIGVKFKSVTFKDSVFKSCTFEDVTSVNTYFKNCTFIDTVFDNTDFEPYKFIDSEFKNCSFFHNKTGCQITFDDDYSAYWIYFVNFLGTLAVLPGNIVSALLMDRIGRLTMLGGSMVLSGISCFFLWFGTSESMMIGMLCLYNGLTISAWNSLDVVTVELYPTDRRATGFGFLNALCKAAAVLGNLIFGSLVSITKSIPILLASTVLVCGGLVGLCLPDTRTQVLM
UniProt P29101, sequence (P29101 1-60): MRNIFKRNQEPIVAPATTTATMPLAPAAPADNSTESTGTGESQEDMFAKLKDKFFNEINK

| Substance | Kd [1] | KD Steady State ([2]; pH 5.0) [µM] | KD Steady State ([2]; pH 7.3) [µM] | KD Kinetics [3] [µM] | ka [3] [M⁻¹ s⁻¹] | kd [3] [s⁻¹] |
| --- | --- | --- | --- | --- | --- | --- |
| BoNT/B (from UniProt P10844) | 0.14 µM and 0.034 µM | – | – | – | – | – |
| Botulinum neurotoxin serotype A HC fragment (HCA / HCAS), 50 kDa cell-binding domain | – | > 1.2 | 0.4 | 0.39 | 310000 | 0.12 |
